# From PMC12851022, “Targeting the Spliceosomal Protein USP39 Through Allosteric Ligands and PROTAC‐Induced Degradation” (Angewandte Chemie (International Ed. in English), 2025)
# B1: USP39-OFP (natural protein)
# chain: MSGRSKRESRGSTRGKRESESRGSSGRVKRERDREREPEAASSRGSPVRVKREFEPASAREAPASVVPFVRVKREREVDEDSEPEREVRAKNGRVDSEDRRSRHCPYLDTINRSVLDFDFEKLCSISLSHINAYACLVCGKYFQGRGLKSHAYIHSVQFSHHVFLNLHTLKFYCLPDNYEIIDSSLEDITYVLKPTFTKQQIANLDKQAKLSRAYDGTTYLPGIVGLNNIKANDYANAVLQALSNVPPLRNYFLEEDNYKNIKRPPGDIMFLLVQRFGELMRKLWNPRNFKAHVSPHEMLQAVVLCSKKTFQITKQGDGVDFLSWFLNALHSALGGTKKKKKTIVTDVFQGSMRIFTKKLPHPDLPAEEKEQLLHNDEYQETMVESTFMYLTLDLPTAPLYKDEKEQLIIPQVPLFNILAKFNGITEKEYKTYKENFLKRFQLTKLPPYLIFCIKRFTKNNFFVEKNPTIVNFPITNVDLREYLSEEVQAVHKNTTYDLIANIVHDGKPSEGSYRIHVLHHGTGKWYELQDLQVTDILPQMITLSEAYIQIWKRRDNDETNQQGA
# Tests used:
# [1] = biological target: VHL_m (Δ91–121) (UniProt P40337)
# Sequence of VHL_m (Δ91–121) (P40337 other isoform, or with tags, fused parts or gaps mutant): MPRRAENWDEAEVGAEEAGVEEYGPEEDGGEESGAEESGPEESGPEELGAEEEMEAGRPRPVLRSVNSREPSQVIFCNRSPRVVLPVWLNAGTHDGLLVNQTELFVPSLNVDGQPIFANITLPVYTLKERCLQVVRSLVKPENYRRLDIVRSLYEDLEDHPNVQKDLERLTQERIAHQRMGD
# [2] = biological target: VHL_WT-EGFP (UniProt P40337)
# Sequence of VHL_WT-EGFP (P40337 whole entry): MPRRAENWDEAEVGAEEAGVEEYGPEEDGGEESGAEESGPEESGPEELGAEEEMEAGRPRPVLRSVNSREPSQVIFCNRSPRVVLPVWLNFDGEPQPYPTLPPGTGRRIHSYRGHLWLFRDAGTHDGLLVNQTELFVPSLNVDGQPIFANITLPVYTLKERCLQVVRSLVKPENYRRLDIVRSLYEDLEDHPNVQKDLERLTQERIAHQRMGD
binder,measurement,setting,value
B1,"fold reduction of USP39 PROTAC V1-induced degradation of USP39-OFP against cells with VHL WT-EGFP, fluorescence assay in HEK293T cells expressing VHL m",[1],> 80 fold
same,"DC50 of USP39 PROTAC V1-induced degradation of USP39-OFP, fluorescence assay in HEK293T cells co-expressing USP39 OFP and VHL WT-EGFP",[2],1 nM
